Results: publication PMC3347502

Biological target: long-chain neurotoxin NTII/I
Experiment: NMR titration

## α7ED/C116S/DTES (extracellular domain of human α7 nicotinic acetylcholine receptor with Cys116Ser an (domain or fragment)
  stoichiometry N: 2
